Assay results from paper PMC3409459, “Absorption, distribution, metabolism and excretion of peginesatide, a novel erythropoiesis-stimulating agent, in rats” (Xenobiotica; the Fate of Foreign Compounds in Biological …, 2011).

Experiment: Tissue distribution of radioactivity by LSC following combustion, albino rats
Type: in vivo, male Sprague-Dawley (albino) rats
Conditions: mean ± SD, n=3
Procedure: Total captured radioactivity was subsequently measured via LSC.
Male Sprague-Dawley (albino) rats (n = 21; three per time point) were administered a single IV dose of 5 mg·kg^−1 [^14C]-peginesatide (27.5 μCi/kg) and tissue concentrations of radioactivity determined at 0.25, 6, and 24 h, and 7,14,30 and 60 days following dosing. Similarly, male Long Evans (pigmented) rats (n = 21; three per time point) were administered a single IV dose of 5 mg-kg^−1 [^14C]-peginesatide and plasma, skin, and eye concentrations of radioactivity were measured at the various time points through 60 days after dosing. At each time point, blood was collected, the animals sacrificed, and tissues excised. Tissues collected from the Sprague-Dawley rats included blood, plasma, adrenals, bone marrow, brain, eyes, fat, femur, Harderian glands, heart, hypophysis, intestine, kidneys, lungs, liver, pancreas, skeletal muscle, skin, spinal cord, spleen, stomach, submaxillary glands, testes, thymus, thyroid gland, and urinary bladder. Plasma, eyes, non-pigmented skin, and pigmented skin were collected from Long Evans rats. All tissue samples were measured for radioactivity by LSC following combustion. The liver and intestine were first homogenized in distilled water (20% w/v) prior to analysis. The concentration of radioactivity in the blood, plasma, and tissues was calculated and expressed as ug equiv·g^-1 or mLbased on the LSC counts and the specific activity of the dosing solution.

[1] = 7 Days after single IV 5 mg·kg^−1, LSC
[2] = 14 Days after single IV 5 mg·kg^−1, LSC
[3] = 30 Days after single IV 5 mg·kg^−1, LSC
[4] = 60 Days after single IV 5 mg·kg^−1, LSC

Substance: Peginesatide
- Concentration of the radioactivity, Adrenals [1]: 10.2 ± 1.31 μg equiv·g^−1 or mL
- Concentration of the radioactivity, Blood [1]: 3.87 ± 0.291 μg equiv·g^−1 or mL
- Concentration of the radioactivity, Bone (femur) [1]: 0.788 ± 0.374 μg equiv·g^−1 or mL
- Concentration of the radioactivity, Bone marrow [1]: 8.87 ± 0.641 μg equiv·g^−1 or mL
- Concentration of the radioactivity, Brain [1]: 0.200 ± 0.021 μg equiv·g^−1 or mL
- Concentration of the radioactivity, Eyes [1]: 0.885 ± 0.111 μg equiv·g^−1 or mL
- Concentration of the radioactivity, Fat [1]: 2.11 ± 0.693 μg equiv·g^−1 or mL
- Concentration of the radioactivity, Harderian glands [1]: 4.41 ± 0.100 μg equiv·g^−1 or mL
- Concentration of the radioactivity, Heart [1]: 4.01 ± 0.344 μg equiv·g^−1 or mL
- Concentration of the radioactivity, Intestine [1]: 3.05 ± 0.259 μg equiv·g^−1 or mL
- Concentration of the radioactivity, Kidneys [1]: 5.68 ± 0.386 μg equiv·g^−1 or mL
- Concentration of the radioactivity, Liver [1]: 12.5 ± 0.727 μg equiv·g^−1 or mL
- Concentration of the radioactivity, Lungs [1]: 4.26 ± 0.285 μg equiv·g^−1 or mL
- Concentration of the radioactivity, Pancreas [1]: 9.74 ± 0.231 μg equiv·g^−1 or mL
- Concentration of the radioactivity, Pituitary [1]: 8.31 ± 0.594 μg equiv·g^−1 or mL
- Concentration of the radioactivity, Plasma [1]: 7.80 ± 0.541 μg equiv·g^−1 or mL
- Concentration of the radioactivity, Skeletal muscle [1]: 0.563 ± 0.119 μg equiv·g^−1 or mL
- Concentration of the radioactivity, Skin [1]: 3.06 ± 0.055 μg equiv·g^−1 or mL
- Concentration of the radioactivity, Spinal cord [1]: 0.129 ± 0.067 μg equiv·g^−1 or mL
- Concentration of the radioactivity, Spleen [1]: 11.5 ± 0.204 μg equiv·g^−1 or mL
- Concentration of the radioactivity, Stomach [1]: 2.36 ± 0.262 μg equiv·g^−1 or mL
- Concentration of the radioactivity, Submandibular lymph nodes [1]: 10.6 ± 0.553 μg equiv·g^−1 or mL
- Concentration of the radioactivity, Testes [1]: 4.98 ± 0.222 μg equiv·g^−1 or mL
- Concentration of the radioactivity, Thymus [1]: 3.39 ± 0.560 μg equiv·g^−1 or mL
- Concentration of the radioactivity, Thyroid gland [1]: 17.0 ± 5.26 μg equiv·g^−1 or mL
- Concentration of the radioactivity, Urinary bladder [1]: 4.52 ± 1.01 μg equiv·g^−1 or mL
- Concentration of the radioactivity, Adrenals [2]: 9.15 ± 2.39 μg equiv·g^−1 or mL
- Concentration of the radioactivity, Blood [2]: 1.03 ± 0.229 μg equiv·g^−1 or mL
- Concentration of the radioactivity, Bone (femur) [2]: 0.388 ± 0.054 μg equiv·g^−1 or mL
- Concentration of the radioactivity, Bone marrow [2]: 6.33 ± 0.683 μg equiv·g^−1 or mL
- Concentration of the radioactivity, Brain [2]: 0.102 ± 0.014 μg equiv·g^−1 or mL
- Concentration of the radioactivity, Eyes [2]: 0.765 ± 0.022 μg equiv·g^−1 or mL
- Concentration of the radioactivity, Fat [2]: 1.14 ± 0.475 μg equiv·g^−1 or mL
- Concentration of the radioactivity, Harderian glands [2]: 5.21 ± 0.433 μg equiv·g^−1 or mL
- Concentration of the radioactivity, Heart [2]: 2.73 ± 0.254 μg equiv·g^−1 or mL
- Concentration of the radioactivity, Intestine [2]: 1.78 ± 0.297 μg equiv·g^−1 or mL
- Concentration of the radioactivity, Kidneys [2]: 4.49 ± 1.02 μg equiv·g^−1 or mL
- Concentration of the radioactivity, Liver [2]: 8.53 ± 0.754 μg equiv·g^−1 or mL
- Concentration of the radioactivity, Lungs [2]: 3.38 ± 0.703 μg equiv·g^−1 or mL
- Concentration of the radioactivity, Pancreas [2]: 9.10 ± 0.629 μg equiv·g^−1 or mL
- Concentration of the radioactivity, Pituitary [2]: 6.25 ± 1.17 μg equiv·g^−1 or mL
- Concentration of the radioactivity, Plasma [2]: 2.00 ± 0.605 μg equiv·g^−1 or mL
- Concentration of the radioactivity, Skeletal muscle [2]: 0.379 ± 0.108 μg equiv·g^−1 or mL
- Concentration of the radioactivity, Skin [2]: 1.70 ± 0.109 μg equiv·g^−1 or mL
- Concentration of the radioactivity, Spinal cord [2]: 0.069 ± 0.030 μg equiv·g^−1 or mL
- Concentration of the radioactivity, Spleen [2]: 23.6 ± 2.82 μg equiv·g^−1 or mL
- Concentration of the radioactivity, Stomach [2]: 2.00 ± 0.118 μg equiv·g^−1 or mL
- Concentration of the radioactivity, Submandibular lymph nodes [2]: 10.9 ± 1.32 μg equiv·g^−1 or mL
- Concentration of the radioactivity, Testes [2]: 5.19 ± 0.448 μg equiv·g^−1 or mL
- Concentration of the radioactivity, Thymus [2]: 1.81 ± 0.249 μg equiv·g^−1 or mL
- Concentration of the radioactivity, Thyroid gland [2]: 13.2 ± 3.52 μg equiv·g^−1 or mL
- Concentration of the radioactivity, Urinary bladder [2]: 2.30 ± 0.326 μg equiv·g^−1 or mL
- Concentration of the radioactivity, Adrenals [3]: 7.90 ± 1.57 μg equiv·g^−1 or mL
- Concentration of the radioactivity, Blood [3]: 0.466 ± 0.054 μg equiv·g^−1 or mL
- Concentration of the radioactivity, Bone (femur) [3]: 0.278 ± 0.057 μg equiv·g^−1 or mL
- Concentration of the radioactivity, Bone marrow [3]: 4.12 ± 1.37 μg equiv·g^−1 or mL
- Concentration of the radioactivity, Brain [3]: 0.080 ± 0.010 μg equiv·g^−1 or mL
- Concentration of the radioactivity, Eyes [3]: 0.511 ± 0.147 μg equiv·g^−1 or mL
- Concentration of the radioactivity, Fat [3]: 0.582 ± 0.070 μg equiv·g^−1 or mL
- Concentration of the radioactivity, Harderian glands [3]: 3.88 ± 0.907 μg equiv·g^−1 or mL
- Concentration of the radioactivity, Heart [3]: 1.57 ± 0.244 μg equiv·g^−1 or mL
- Concentration of the radioactivity, Intestine [3]: 1.40 ± 0.183 μg equiv·g^−1 or mL
- Concentration of the radioactivity, Kidneys [3]: 3.03 ± 0.429 μg equiv·g^−1 or mL
- Concentration of the radioactivity, Liver [3]: 3.45 ± 0.808 μg equiv·g^−1 or mL
- Concentration of the radioactivity, Lungs [3]: 1.78 ± 0.237 μg equiv·g^−1 or mL
- Concentration of the radioactivity, Pancreas [3]: 6.67 ± 1.70 μg equiv·g^−1 or mL
- Concentration of the radioactivity, Pituitary [3]: 7.24 ± 0.292 μg equiv·g^−1 or mL
- Concentration of the radioactivity, Plasma [3]: 0.780 ± 0.099 μg equiv·g^−1 or mL
- Concentration of the radioactivity, Skeletal muscle [3]: 0.152 ± 0.012 μg equiv·g^−1 or mL
- Concentration of the radioactivity, Skin [3]: 0.889 ± 0.228 μg equiv·g^−1 or mL
- Concentration of the radioactivity, Spinal cord [3]: 0.033 ± 0.016 μg equiv·g^−1 or mL
- Concentration of the radioactivity, Spleen [3]: 17.7 ± 4.96 μg equiv·g^−1 or mL
- Concentration of the radioactivity, Stomach [3]: 1.28 ± 0.106 μg equiv·g^−1 or mL
- Concentration of the radioactivity, Submandibular lymph nodes [3]: 7.86 ± 1.19 μg equiv·g^−1 or mL
- Concentration of the radioactivity, Testes [3]: 4.33 ± 1.00 μg equiv·g^−1 or mL
- Concentration of the radioactivity, Thymus [3]: 1.14 ± 0.138 μg equiv·g^−1 or mL
- Concentration of the radioactivity, Thyroid gland [3]: 13.9 ± 3.33 μg equiv·g^−1 or mL
- Concentration of the radioactivity, Urinary bladder [3]: 1.77 ± 0.889 μg equiv·g^−1 or mL
- Concentration of the radioactivity, Adrenals [4]: 5.32 ± 0.996 μg equiv·g^−1 or mL
- Concentration of the radioactivity, Blood [4]: 0.170 ± 0.036 μg equiv·g^−1 or mL
- Concentration of the radioactivity, Bone (femur) [4]: 0.046 ± 0.001 μg equiv·g^−1 or mL
- Concentration of the radioactivity, Bone marrow [4]: 0.361 ± 0.142 μg equiv·g^−1 or mL
- Concentration of the radioactivity, Brain [4]: 0.057 ± 0.006 μg equiv·g^−1 or mL
- Concentration of the radioactivity, Eyes [4]: 0.299 ± 0.076 μg equiv·g^−1 or mL
- Concentration of the radioactivity, Fat [4]: 0.456 ± 0.135 μg equiv·g^−1 or mL
- Concentration of the radioactivity, Harderian glands [4]: 2.75 ± 0.281 μg equiv·g^−1 or mL
- Concentration of the radioactivity, Heart [4]: 1.14 ± 0.205 μg equiv·g^−1 or mL
- Concentration of the radioactivity, Intestine [4]: 0.624 ± 0.033 μg equiv·g^−1 or mL
- Concentration of the radioactivity, Kidneys [4]: 2.11 ± 0.574 μg equiv·g^−1 or mL
- Concentration of the radioactivity, Liver [4]: 1.17 ± 0.199 μg equiv·g^−1 or mL
- Concentration of the radioactivity, Lungs [4]: 1.05 ± 0.238 μg equiv·g^−1 or mL
- Concentration of the radioactivity, Pancreas [4]: 5.92 ± 0.436 μg equiv·g^−1 or mL
